Here are results for one substance from patent publication US20220064294A1.

This assay deals with mouse TIGIT, full length, on CHO-K1 cells (mouse) (UniProt P86176). Nature of the assay: flow cytometry, CHO-K1 cells transiently transfected with mouse TIGIT; target taken from the legend paragraph 32 and from paragraph 286 (FIG. 4A = mouse TIGIT); paragraph 286 however names GNE10A7, not G1GD7, as the control for mouse TIGIT. In general terms: In flow cytometry, cells or beads pass a laser one at a time.
Chain of mouse TIGIT, full length, on CHO-K1 cells (mouse) (P86176 29-249 limits assumed): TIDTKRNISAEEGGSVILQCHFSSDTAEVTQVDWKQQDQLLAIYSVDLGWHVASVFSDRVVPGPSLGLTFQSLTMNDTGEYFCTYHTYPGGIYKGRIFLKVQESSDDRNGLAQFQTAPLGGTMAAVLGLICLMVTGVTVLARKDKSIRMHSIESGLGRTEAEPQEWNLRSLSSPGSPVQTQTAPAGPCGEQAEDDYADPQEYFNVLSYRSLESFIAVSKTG

In general, EC50 (read off the curve) refers to the midpoint of the concentration-response curve. A high value points to a less potent agent. eBioscience G1GD7 (antibody) showed a half-maximal effective concentration (EC50 (read off the curve)) of 0.8 nM.
